{"source": "patent US20120128639A1", "about": "“In Vitro Production Of Oligodendrocytes From Human Umbilical Cord Stem Cells” (UNIVERSITY OF CENTRAL FLORIDA RESEARCH FOUNDATION, INC., priority 2009, published 2012)", "test_system": "human multipotent progenitor cells (MLPCs) from umbilical cord", "settings": "3D environment; presence or absence in medium", "description": "MLPCs were seeded on DETA-coated glass coverslips (18 mm) at a density of 4×10^3 cells/cm^2 in growth medium. After 3 days, at about 60% confluency, cells were incubated for 24 hours in pre-induction medium, consisting of DMEM, 15% FBS. FGF-2, EGF (20 ng/ml each, R & D Systems, Minneapolis, Minn.) and PDGF-AA (10 ng/ml, Chemicon International, Temecula, Calif.). To initiate differentiation, the pre-induction medium was removed, the cells were washed 2× with Hanks' balanced salts solution (Gibco BRL) and transferred to serum-free differentiation medium.\nConstruction of 3D Environment MLPCs were plated on DETA-coated glass coverslips (18 mm) in growth medium. At about 60% confluence, growth medium was replaced with pre-induction medium. […]\nPhase-contrast images were taken with a commercial Nikon Coolpix 990 camera using the Zeiss Axiovert S100 microscope. Pictures were analyzed using Scion Image Software (Scion Corp., Frederick, Md.).\nThe morphological and immunocytochemical quantification was performed on undifferentiated stem cells or cells during various differentiation stages. […] All the marker-positive cells were counted, as well as the total number of cells in these views. At least three coverslips in each group were quantified and data were expressed as average±standard deviation (SD). Statistical differences between different experimental groups were analyzed by Student's t-test."}
{"molecule": "EGF: growth factor in pre-induction and differentiation medium (protein, UniProt P01133 23-1207, looked up, Pro-epidermal growth factor) Pro-epidermal growth factor: PQHWSCPEGTLAGNGNSTCVGPAPFLIFSHGNSIFRIDTEGTNYEQLVVDAGVSVIMDFHYNEKRIYWVDLERQLLQRVFLNGSRQERVCNIEKNVSGMAINWINEEVIWSNQQEGIITVTDMKGNNSHILLSALKYPANVAVDPVERFIFWSSEVAGSLYRADLDGVGVKALLETSEKITAVSLDVLDKRLFWIQYNREGSNSLICSCDYDGGSVHISKHPTQHNLFAMSLFGDRIFYSTWKMKTIWIANKHTGKDMVRINLHSSFVPLGELKVVHPLAQPKAEDDTWEPEQKLCKLRKGNCSSTVCGQDLQSHLCMCAEGYALSRDRKYCEDVNECAFWNHGCTLGCKNTPGSYYCTCPVGFVLLPDGKRCHQLVSCPRNVSECSHDCVLTSEGPLCFCPEGSVLERDGKTCSGCSSPDNGGCSQLCVPLSPVSWECDCFPGYDLQLDEKSCAASGPQPFLLFANSQDIRHMHFDGTDYGTLLSQQMGMVYALDHDPVENKIYFAHTALKWIERANMDGSQRERLIEEGVDVPEGLAVDWIGRRFYWTDRGKSLIGRSDLNGKRSKIITKENISQPRGIAVHPMAKRLFWTDTGINPRIESSSLQGLGRLVIASSDLIWPSGITIDFLTDKLYWCDAKQSVIEMANLDGSKRRRLTQNDVGHPFAVAVFEDYVWFSDWAMPSVMRVNKRTGKDRVRLQGSMLKPSSLVVVHPLAKPGADPCLYQNGGCEHICKKRLGTAWCSCREGFMKASDGKTCLALDGHQLLAGGEVDLKNQVTPLDILSKTRVSEDNITESQHMLVAEIMVSDQDDCAPVGCSMYARCISEGEDATCQCLKGFAGDGKLCSDIDECEMGVPVCPPASSKCINTEGGYVCRCSEGYQGDGIHCLDIDECQLGEHSCGENASCTNTEGGYTCMCAGRLSEPGLICPDSTPPPHLREDDHHYSVRNSDSECPLSHDGYCLHDGVCMYIEALDKYACNCVVGYIGERCQYRDLKWWELRHAGHGQQQKVIVVAVCVVVLVMLLLLSLWGAHYYRTQKLLSKNPKNPYEESSRDVRSRRPADTEDGMSSCPQPWFVVIKEHQDLKNGGQPVAGEDGQAADGSMQPTSWRQEPQLCGMGTEQGCWIPVSSDKGSCPQVMERSFHMPSYGTQTLEGGVEKPHSLLSANPLWQQRALDPPHQMELTQ", "values": [{"measurement": "need of the growth factor for process formation", "value": "not essential"}]}
